Test results taken from the supplement of paper PMC10065799, “High-throughput profiling of sequence recognition by tyrosine kinases and SH2 domains using bacterial peptide display” (eLife, 2023).

Test system: Fer (mouse)
Experiment: phosphorylation enrichment, bacterial display (enrichment ratio); higher = better substrate or ligand; peptides without Tyr show the background
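Further: 11-residue human phosphosite peptides and single-mutation variants displayed on the E. coli surface, counted by deep sequencing, each peptide's frequency after selection divided by its frequency in the unselected input library; frequency after pTyr selection over input frequency; kinase dosed for 20-30% of maximal phosphorylation in three min.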

Point of comparison: SARFHYLMAEK [LDHB_Y173_R172H], phosphorylation enrichment 0.473. Against it:
- GFPVHYTDVSN [DNMT3B_Y815] — higher, 0.708
- RRGTRYMSSRP [RPL21_Y13_F15S] — higher, 0.578
- VIECSYTSADG [DHCR7_Y382] — higher, 0.496
- EEESCYILHSS [PATJ_Y783] — higher, 0.926
- QSKGIYFVQLE [MGAT4B_Y262_YF] — higher, 0.713
- PMQMPYDSRWE [PDGFRA_Y582_L580M] — higher, 0.671
- FQEKGYNKELR [CHRND_Y38] — lower, 0.376
- KAIMTYVPSFY [ACTN4_Y260_S262P] — lower, 0.415
- KVNKIYYPDFI [LIG3_Y767] — higher, 0.481
- FSDPSYVKQME [CDC5L_Y464_YF] — lower, 0.452
- ADFPDCKFRPR [SOX11_Y116_Y116C_YF] — lower, 0.412
- ETPSEYLEIVR [TMEM130_Y412] — higher, 0.493
- FPLELYERVRM [PRKCG_Y312_YF] — higher, 2.39
- FDFKKYGKGLR [ZNF445_Y433_YF] — lower, 0.304
- WISNRSLDFSS [PRPH2_Y184_Y184S] — higher, 0.583
- TFWKKYRTFWK [CCDC70_Y125] — lower, 0.409
- LQTYHYHGHSM [PDHA1_Y289_R288H] — higher, 0.75
- DVMDFYKTLRG [NR3C1_Y30] — lower, 0.41
- AEKPKYQINNI [TJP1_Y1602] — lower, 0.368
- HSFQCYGRNEA [ENTPD3_Y262] — higher, 0.759
- SSVAGYACLAF [MVD_Y131_A128V_YF] — higher, 0.511
- MTYMFYRENLR [NLRP14_Y443_V441M] — lower, 0.456
- SPYAVYLFFTF [RPGRIP1_Y826_R827L] — higher, 0.628
- TDGIAYEFRVT — higher, 0.639
- LSRDVYEEDSF [RET_Y900_YF] — higher, 0.946
- TVLEHYRRTHC [MYBPC3_Y1119] — lower, 0.408
- CTTIHKNYMCN [TP53_Y234_Y234K] — lower, 0.406
- NNDLCYWVPEL [IARS1_Y434] — higher, 0.643
- SNNYIYTTLGV [FAM83B_Y639_K640T] — higher, 6.62
- QLLIKYPPEEV [ZZZ3_Y670] — the same, 0.473
- KFMVGYEMIAQ [GALT_Y339_L342I] — higher, 0.487
- ALRHYYKLNII [ETV6_Y402] — higher, 0.693

Target: Fyn (UniProt P06241)
Sequence (P06241 whole entry, looked up): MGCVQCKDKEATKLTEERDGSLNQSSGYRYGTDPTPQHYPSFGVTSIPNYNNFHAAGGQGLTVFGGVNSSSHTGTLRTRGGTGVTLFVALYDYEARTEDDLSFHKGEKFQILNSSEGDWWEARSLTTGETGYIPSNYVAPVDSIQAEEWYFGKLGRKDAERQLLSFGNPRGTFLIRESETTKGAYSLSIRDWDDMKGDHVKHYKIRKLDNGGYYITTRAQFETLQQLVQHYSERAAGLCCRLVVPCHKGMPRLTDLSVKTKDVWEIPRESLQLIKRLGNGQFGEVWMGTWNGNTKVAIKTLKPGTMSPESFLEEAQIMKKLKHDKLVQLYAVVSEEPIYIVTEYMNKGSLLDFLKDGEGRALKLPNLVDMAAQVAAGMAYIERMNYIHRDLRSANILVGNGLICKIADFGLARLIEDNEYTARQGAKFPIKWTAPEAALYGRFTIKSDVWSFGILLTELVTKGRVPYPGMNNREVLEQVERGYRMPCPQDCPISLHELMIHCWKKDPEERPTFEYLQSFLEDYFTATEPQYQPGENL
Experiment: as above

Point of comparison: LSRDVYEEDSF [RET_Y900_YF], phosphorylation enrichment 0.573. Against it:
- GFPVHYTDVSN [DNMT3B_Y815] — lower, 0.43
- RRGTRYMSSRP [RPL21_Y13_F15S] — higher, 0.772
- VIECSYTSADG [DHCR7_Y382] — lower, 0.478
- SARFHYLMAEK [LDHB_Y173_R172H] — lower, 0.564
- EEESCYILHSS [PATJ_Y783] — higher, 0.659
- QSKGIYFVQLE [MGAT4B_Y262_YF] — higher, 1.1
- PMQMPYDSRWE [PDGFRA_Y582_L580M] — lower, 0.374
- FQEKGYNKELR [CHRND_Y38] — lower, 0.335
- KAIMTYVPSFY [ACTN4_Y260_S262P] — lower, 0.52
- KVNKIYYPDFI [LIG3_Y767] — higher, 0.607
- FSDPSYVKQME [CDC5L_Y464_YF] — lower, 0.532
- ADFPDCKFRPR [SOX11_Y116_Y116C_YF] — lower, 0.395
- ETPSEYLEIVR [TMEM130_Y412] — lower, 0.555
- FPLELYERVRM [PRKCG_Y312_YF] — higher, 0.629
- FDFKKYGKGLR [ZNF445_Y433_YF] — lower, 0.318
- WISNRSLDFSS [PRPH2_Y184_Y184S] — lower, 0.401
- TFWKKYRTFWK [CCDC70_Y125] — lower, 0.46
- LQTYHYHGHSM [PDHA1_Y289_R288H] — higher, 0.671
- DVMDFYKTLRG [NR3C1_Y30] — lower, 0.451
- AEKPKYQINNI [TJP1_Y1602] — lower, 0.341
- HSFQCYGRNEA [ENTPD3_Y262] — higher, 0.711
- SSVAGYACLAF [MVD_Y131_A128V_YF] — lower, 0.478
- MTYMFYRENLR [NLRP14_Y443_V441M] — higher, 1.48
- SPYAVYLFFTF [RPGRIP1_Y826_R827L] — higher, 0.617
- TDGIAYEFRVT — lower, 0.487
- TVLEHYRRTHC [MYBPC3_Y1119] — lower, 0.52
- CTTIHKNYMCN [TP53_Y234_Y234K] — lower, 0.395
- NNDLCYWVPEL [IARS1_Y434] — higher, 1.92
- SNNYIYTTLGV [FAM83B_Y639_K640T] — higher, 8.37
- QLLIKYPPEEV [ZZZ3_Y670] — higher, 0.7
- KFMVGYEMIAQ [GALT_Y339_L342I] — lower, 0.444
- ALRHYYKLNII [ETV6_Y402] — lower, 0.506
